# According to article PMC3896602 (mAbs, 2013):
# Where a chain is given by its changes, count along the chain named.
# B1: human CXCL13 (natural protein)
# chain: VLEVYYTSLRCRCVQESSVFIPRRFIDRIQILPRGNGCPRKEIIVWKKNKSIVCVDPQAEWIQRMMEVLRKRSSSTLPVPVFKRKIP
# B2: anti-CXCL13 3B4 scFv-Fc fusion protein (Fc fusion, human)
# VH: QVQLVQSGAEVKKPGSSVKVSCKASGGTFSSYAISWVRQAPGQGLEWMGGIIPIFGTANYAQKFQGRVTITADESTSTAYMELSSLRSEDTAVYYCAREPDYYDSSGYYPIDAFDIWGQGTTVTVSS
# VL: QSALTQPASVSASPGQSITISCTGTSSDVGAYDWVSWYQQHPGKAPKLLIFDVNNRPSGVSHRFSGSKSGNTASLTISGLQAEDEADYYCSSYTRRDTYVFGTGTKVTVL
# B3: anti-CXCL13 A01 scFv-Fc fusion protein (Fc fusion, human)
# VH: B2 VH
# VL: B2 VL with S91A, Y93T, R95L, R96F
# B4: anti-CXCL13 H08 scFv-Fc fusion protein (Fc fusion, human)
# VH: B2 VH
# VL: B2 VL with S91T, Y93V, R95V, R96E
# B5: anti-CXCL13 E10 scFv-Fc fusion protein (Fc fusion, human)
# VH: B2 VH
# VL: B2 VL with S91A, Y93A, R95L, R96L
# B6: anti-CXCL13 C04 scFv-Fc fusion protein (Fc fusion, human)
# VH: B2 VH
# VL: B2 VL with Y93A, T94G, R95I, R96I, D97S, T98V
# B7: anti-CXCL13 H06 scFv-Fc fusion protein (Fc fusion, human)
# VH: B2 VH
# VL: B2 VL with S91A, Y93V, T94V, R95V, R96T
# B8: anti-CXCL13 C07 scFv-Fc fusion protein (Fc fusion, human)
# VH: B2 VH
# VL: B2 VL with Y93P, R95F, R96T, D97E, T98P
# Biological target: IT1-Fc-3B4 scFv-Fc-scFv bispecific molecule (human)
# Assay: SPR
row,Kd [nM],Binder
1,0.8,B1

# Biological target: IT1-Fc-E10 scFv-Fc-scFv bispecific molecule (human)
# Assay: SPR
row,Kd [nM],Binder
1,0.067,B1

# Biological target: IT1-Fc-A1 scFv-Fc-scFv bispecific molecule (human)
# Assay: SPR
row,Kd [nM],Binder
1,0.01,B1

# Biological target: human CXCL13 (Homo sapiens, UniProt O43927)
# Assay: SPR
Kd [nM],koff [s⁻¹],kon [M⁻¹ s⁻¹],Binder
0.371,0.0121,3.24e+07,B2
0.0298,0.0003,9.28e+06,B3
0.0199,0.0002,8.53e+06,B4
0.0454,0.0005,9.81e+06,B5
0.046,0.0003,6.22e+06,B6
0.0376,0.0003,7.54e+06,B7
0.0279,0.0002,8.03e+06,B8
